In patent publication US20240261333A1, “NOVEL TARGETS FOR ENHANCING ANTI-TUMOR IMMUNITY” (THE BROAD INSTITUTE, INC., priority 2021, published 2024):

Columns and labels:
ACSL3 (human) = ACSL3 (human) (UniProt O95573); test: anti-FLAG co-IP from lysate of N-FLAG B3GNT2 cells, mass spectrometry
AIFM1 (human) = AIFM1 (human) (UniProt O95831); test: as above
EEF2 (human) = EEF2 (human) (UniProt P13639); test: as above
ERP29 (human) = ERP29 (human) (UniProt P30040); test: as above
FBXO6 (human) = FBXO6 (human) (UniProt Q9NRD1); test: as above
HSP90AB1 (human) = HSP90AB1 (human) (UniProt P08238); test: as above
KPNB1 (human) = KPNB1 (human) (UniProt Q14974); test: as above
LARP4 (human) = LARP4 (human) (UniProt Q71RC2); test: as above
LDHA (human) = LDHA (human) (UniProt P00338); test: as above
PGAM5 (human) = PGAM5 (human) (UniProt Q96HS1); test: as above
PSMA5 (human) = PSMA5 (human) (UniProt P28066); test: as above
PSMB4 (human) = PSMB4 (human) (UniProt P28070); test: as above
PSMC2 (human) = PSMC2 (human) (UniProt P35998); test: as above
PXN (human) = PXN (human) (UniProt P49023); test: as above
RPL15 (human) = RPL15 (human) (UniProt P61313); test: as above
RPS6 (human) = RPS6 (human) (UniProt P62753); test: as above
RRBP1 (human) = RRBP1 (human) (UniProt Q9P2E9); test: as above
STAU1 (human) = STAU1 (human) (UniProt O95793); test: as above
TUBA1C (human) = TUBA1C (human) (UniProt Q9BQE3); test: as above
CLTC (human) = CLTC (human) (UniProt Q00610); test: co-IP with IgG control, lysate of N-FLAG B3GNT2 cells, mass spectrometry
CPSF7 (human) = CPSF7 (human) (UniProt Q8N684); test: as above
DDX3X (human) = DDX3X (human) (UniProt O00571); test: as above
HBB (human) = HBB (human) (UniProt P68871); test: as above
JUP (human) = JUP (human) (UniProt P14923); test: as above
LAMC1 (human) = LAMC1 (human) (UniProt P11047); test: as above
MMP14 (human) = MMP14 (human) (UniProt P50281); test: as above
[1] = target: P0AA25.2 [thioredoxin: P0AA25]; test: as above
PLOD1 (human) = PLOD1 (human) (UniProt Q02809); test: as above
PSMA3 (human) = PSMA3 (human) (UniProt P25788); test: as above
PSMB5 (human) = PSMB5 (human) (UniProt P28074); test: as above
PUF60 (human) = PUF60 (human) (UniProt Q9UHX1); test: as above
RPL6 (human) = RPL6 (human) (UniProt Q02878); test: as above
SBSN (human) = SBSN (human) (UniProt Q6UWP8); test: as above
SRSF6 (human) = SRSF6 (human) (UniProt Q13247); test: as above
TGM1 (human) = TGM1 (human) (UniProt P22735); test: as above
TTC13 (human) = TTC13 (human) (UniProt Q8NBP0); test: as above
UniProt P01837.1 = test: as above
XPOT (human) = XPOT (human) (UniProt O43592); test: as above

CLTC (human), sequence (Q00610 2-1675 limits assumed): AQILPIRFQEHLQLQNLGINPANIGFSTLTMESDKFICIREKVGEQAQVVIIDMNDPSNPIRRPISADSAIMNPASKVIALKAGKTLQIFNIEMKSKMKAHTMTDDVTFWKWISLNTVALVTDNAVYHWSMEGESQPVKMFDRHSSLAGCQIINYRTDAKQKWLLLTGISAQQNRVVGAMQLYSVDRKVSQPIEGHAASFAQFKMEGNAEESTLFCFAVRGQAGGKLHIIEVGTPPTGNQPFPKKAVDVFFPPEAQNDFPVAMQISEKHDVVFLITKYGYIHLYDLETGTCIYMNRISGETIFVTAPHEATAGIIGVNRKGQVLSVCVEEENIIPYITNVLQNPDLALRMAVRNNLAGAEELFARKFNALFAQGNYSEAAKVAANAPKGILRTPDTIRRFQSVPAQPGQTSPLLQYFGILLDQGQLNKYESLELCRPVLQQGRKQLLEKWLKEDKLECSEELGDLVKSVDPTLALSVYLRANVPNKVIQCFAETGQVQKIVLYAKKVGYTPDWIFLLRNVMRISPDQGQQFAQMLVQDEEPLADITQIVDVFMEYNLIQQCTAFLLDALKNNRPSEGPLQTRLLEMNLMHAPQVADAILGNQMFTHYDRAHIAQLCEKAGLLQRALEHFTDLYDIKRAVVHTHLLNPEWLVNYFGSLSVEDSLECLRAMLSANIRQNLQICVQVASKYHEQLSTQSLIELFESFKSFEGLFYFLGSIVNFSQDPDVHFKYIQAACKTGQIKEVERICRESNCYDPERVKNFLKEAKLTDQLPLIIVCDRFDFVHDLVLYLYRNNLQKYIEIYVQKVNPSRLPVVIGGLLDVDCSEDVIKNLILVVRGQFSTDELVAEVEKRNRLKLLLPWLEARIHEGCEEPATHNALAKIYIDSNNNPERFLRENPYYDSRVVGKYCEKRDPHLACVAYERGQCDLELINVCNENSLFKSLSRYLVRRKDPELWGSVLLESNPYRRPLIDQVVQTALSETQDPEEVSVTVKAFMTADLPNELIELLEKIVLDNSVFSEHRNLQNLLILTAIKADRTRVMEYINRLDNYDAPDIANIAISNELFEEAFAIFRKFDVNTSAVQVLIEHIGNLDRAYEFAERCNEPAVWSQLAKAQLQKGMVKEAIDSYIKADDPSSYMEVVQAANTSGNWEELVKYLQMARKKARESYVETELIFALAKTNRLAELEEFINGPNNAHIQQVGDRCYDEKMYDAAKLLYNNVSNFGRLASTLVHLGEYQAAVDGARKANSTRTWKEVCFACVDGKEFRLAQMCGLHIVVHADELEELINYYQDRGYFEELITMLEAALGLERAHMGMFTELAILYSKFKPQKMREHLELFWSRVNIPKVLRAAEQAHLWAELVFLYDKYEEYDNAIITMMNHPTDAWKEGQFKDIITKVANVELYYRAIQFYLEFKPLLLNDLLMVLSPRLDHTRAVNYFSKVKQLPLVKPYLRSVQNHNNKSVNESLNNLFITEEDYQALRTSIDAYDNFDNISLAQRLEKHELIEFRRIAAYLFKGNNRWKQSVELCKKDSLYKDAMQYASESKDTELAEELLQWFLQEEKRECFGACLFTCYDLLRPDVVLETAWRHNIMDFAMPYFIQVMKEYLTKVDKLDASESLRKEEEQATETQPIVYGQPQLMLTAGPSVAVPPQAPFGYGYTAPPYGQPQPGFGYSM
PSMB5 (human), sequence (P28074 60-263 limits assumed): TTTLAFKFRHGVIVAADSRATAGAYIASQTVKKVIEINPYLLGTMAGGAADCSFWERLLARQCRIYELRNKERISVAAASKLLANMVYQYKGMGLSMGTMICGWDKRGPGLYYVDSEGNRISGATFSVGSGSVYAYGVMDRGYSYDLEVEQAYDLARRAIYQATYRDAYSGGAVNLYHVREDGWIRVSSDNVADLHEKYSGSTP
STAU1 (human), sequence (O95793 other isoform, or with tags, fused parts or gaps limits assumed): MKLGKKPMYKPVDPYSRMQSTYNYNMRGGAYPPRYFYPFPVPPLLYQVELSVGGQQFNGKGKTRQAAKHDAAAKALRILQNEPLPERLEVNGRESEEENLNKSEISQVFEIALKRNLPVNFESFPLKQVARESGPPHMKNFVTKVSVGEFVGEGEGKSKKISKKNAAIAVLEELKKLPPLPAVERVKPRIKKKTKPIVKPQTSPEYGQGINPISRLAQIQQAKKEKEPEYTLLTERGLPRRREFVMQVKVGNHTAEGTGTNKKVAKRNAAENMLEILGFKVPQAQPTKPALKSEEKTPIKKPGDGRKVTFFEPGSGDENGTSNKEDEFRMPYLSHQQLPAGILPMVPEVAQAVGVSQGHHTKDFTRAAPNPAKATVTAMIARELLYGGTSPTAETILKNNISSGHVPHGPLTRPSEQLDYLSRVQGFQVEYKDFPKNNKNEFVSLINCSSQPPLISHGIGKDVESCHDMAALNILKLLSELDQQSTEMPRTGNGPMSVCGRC
PLOD1 (human), sequence (Q02809 19-727 limits assumed): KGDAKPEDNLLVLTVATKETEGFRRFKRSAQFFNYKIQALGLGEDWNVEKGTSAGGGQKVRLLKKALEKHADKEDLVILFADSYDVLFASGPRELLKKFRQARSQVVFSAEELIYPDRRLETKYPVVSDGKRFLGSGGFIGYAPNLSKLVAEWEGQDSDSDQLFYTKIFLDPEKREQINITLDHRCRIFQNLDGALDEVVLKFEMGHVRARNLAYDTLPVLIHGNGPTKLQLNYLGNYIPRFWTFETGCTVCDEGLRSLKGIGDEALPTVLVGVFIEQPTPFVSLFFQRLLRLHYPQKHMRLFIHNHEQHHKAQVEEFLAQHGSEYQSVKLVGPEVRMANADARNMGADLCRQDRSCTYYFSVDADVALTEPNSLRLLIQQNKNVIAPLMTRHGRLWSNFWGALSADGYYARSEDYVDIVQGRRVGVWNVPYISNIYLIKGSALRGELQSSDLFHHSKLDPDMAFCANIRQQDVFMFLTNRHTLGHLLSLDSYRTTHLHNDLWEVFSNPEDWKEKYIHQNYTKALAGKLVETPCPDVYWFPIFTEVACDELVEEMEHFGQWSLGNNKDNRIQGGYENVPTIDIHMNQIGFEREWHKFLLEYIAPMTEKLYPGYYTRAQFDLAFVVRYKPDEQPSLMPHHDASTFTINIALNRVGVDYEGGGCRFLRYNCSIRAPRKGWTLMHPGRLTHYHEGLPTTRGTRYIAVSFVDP
PUF60 (human), sequence (Q9UHX1 whole entry): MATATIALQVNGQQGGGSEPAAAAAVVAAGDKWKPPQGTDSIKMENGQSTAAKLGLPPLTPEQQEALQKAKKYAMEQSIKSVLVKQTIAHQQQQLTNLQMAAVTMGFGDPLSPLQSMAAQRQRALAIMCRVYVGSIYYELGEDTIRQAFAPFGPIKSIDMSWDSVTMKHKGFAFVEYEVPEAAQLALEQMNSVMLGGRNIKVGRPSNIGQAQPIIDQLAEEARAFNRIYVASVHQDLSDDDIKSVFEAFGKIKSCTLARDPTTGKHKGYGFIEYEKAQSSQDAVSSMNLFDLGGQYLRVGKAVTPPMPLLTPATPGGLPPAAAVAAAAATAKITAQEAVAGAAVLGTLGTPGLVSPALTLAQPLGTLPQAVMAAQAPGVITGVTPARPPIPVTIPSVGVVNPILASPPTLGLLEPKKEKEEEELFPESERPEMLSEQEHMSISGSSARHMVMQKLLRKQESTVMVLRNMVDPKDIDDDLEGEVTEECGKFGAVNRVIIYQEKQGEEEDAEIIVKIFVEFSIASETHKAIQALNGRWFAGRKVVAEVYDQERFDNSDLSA
PGAM5 (human), sequence (Q96HS1 whole entry): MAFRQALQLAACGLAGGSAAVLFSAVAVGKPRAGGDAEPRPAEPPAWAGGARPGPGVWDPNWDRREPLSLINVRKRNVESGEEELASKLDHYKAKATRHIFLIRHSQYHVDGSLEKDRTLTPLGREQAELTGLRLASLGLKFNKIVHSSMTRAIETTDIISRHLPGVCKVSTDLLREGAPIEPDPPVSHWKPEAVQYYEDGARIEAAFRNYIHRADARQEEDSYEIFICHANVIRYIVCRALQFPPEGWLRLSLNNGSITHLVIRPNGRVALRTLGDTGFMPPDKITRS
TGM1 (human), sequence (P22735 whole entry): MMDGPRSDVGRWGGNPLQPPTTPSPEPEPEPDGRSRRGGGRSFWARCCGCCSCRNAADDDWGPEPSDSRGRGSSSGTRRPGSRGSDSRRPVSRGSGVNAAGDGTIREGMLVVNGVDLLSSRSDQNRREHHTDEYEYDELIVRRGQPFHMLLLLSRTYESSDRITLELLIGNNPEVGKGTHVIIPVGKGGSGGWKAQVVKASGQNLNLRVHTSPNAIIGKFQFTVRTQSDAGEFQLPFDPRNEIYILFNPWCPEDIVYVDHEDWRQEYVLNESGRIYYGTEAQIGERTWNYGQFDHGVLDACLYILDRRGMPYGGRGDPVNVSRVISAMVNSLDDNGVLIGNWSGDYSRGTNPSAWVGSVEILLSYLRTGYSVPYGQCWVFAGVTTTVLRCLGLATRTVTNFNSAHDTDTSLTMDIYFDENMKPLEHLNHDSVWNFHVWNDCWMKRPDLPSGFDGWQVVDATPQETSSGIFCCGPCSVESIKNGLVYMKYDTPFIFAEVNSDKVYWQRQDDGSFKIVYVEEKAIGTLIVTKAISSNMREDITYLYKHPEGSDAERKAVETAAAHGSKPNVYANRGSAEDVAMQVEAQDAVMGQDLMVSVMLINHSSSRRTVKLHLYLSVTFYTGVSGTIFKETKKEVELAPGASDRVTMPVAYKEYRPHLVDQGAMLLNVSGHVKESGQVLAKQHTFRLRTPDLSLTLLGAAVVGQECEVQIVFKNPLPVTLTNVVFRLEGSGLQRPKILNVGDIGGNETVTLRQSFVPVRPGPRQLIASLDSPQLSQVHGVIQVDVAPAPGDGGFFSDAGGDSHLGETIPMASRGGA
FBXO6 (human), sequence (Q9NRD1 whole entry): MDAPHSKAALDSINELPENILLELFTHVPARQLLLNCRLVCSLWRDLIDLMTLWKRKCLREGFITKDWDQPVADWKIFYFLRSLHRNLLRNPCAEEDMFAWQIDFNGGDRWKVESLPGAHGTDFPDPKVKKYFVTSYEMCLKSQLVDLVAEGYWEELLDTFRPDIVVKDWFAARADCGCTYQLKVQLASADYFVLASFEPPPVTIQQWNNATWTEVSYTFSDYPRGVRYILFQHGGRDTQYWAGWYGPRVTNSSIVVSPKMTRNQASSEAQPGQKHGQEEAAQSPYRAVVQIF

**Q.** With “N-terminal FLAG tagged B3GNT2 (from UniProt Q9NY97 1-397) (enzyme)” as the substance, how does the co-IP mass spectrometry count (ACSL3 (human)) read?
**A.** 5

**Q.** What about the co-IP mass spectrometry count (AIFM1 (human)) of the same substance?
**A.** 5

**Q.** What about the co-IP mass spectrometry count (EEF2 (human)) of the same substance?
**A.** 3

**Q.** What about the co-IP mass spectrometry count (ERP29 (human)) of the same substance?
**A.** 2

**Q.** What about the co-IP mass spectrometry count (FBXO6 (human)) of the same substance?
**A.** 4

**Q.** And the co-IP mass spectrometry count (HSP90AB1 (human))?
**A.** 10

**Q.** And the co-IP mass spectrometry count (KPNB1 (human))?
**A.** 3

**Q.** What about the co-IP mass spectrometry count (LARP4 (human)) of the same substance?
**A.** 0

**Q.** And the co-IP mass spectrometry count (LDHA (human))?
**A.** 5

**Q.** What about the co-IP mass spectrometry count (PGAM5 (human)) of the same substance?
**A.** 4

**Q.** And the co-IP mass spectrometry count (PSMA5 (human))?
**A.** 2

**Q.** And the co-IP mass spectrometry count (PSMB4 (human))?
**A.** 2

**Q.** What about the co-IP mass spectrometry count (PSMC2 (human)) of the same substance?
**A.** 2

**Q.** And the co-IP mass spectrometry count (PXN (human))?
**A.** 2

**Q.** And the co-IP mass spectrometry count (RPL15 (human))?
**A.** 6

**Q.** What about the co-IP mass spectrometry count (RPS6 (human)) of the same substance?
**A.** 11

**Q.** What about the co-IP mass spectrometry count (RRBP1 (human)) of the same substance?
**A.** 2

**Q.** And the co-IP mass spectrometry count (STAU1 (human))?
**A.** 2

**Q.** And the co-IP mass spectrometry count (TUBA1C (human))?
**A.** 76

**Q.** What does the source list for “IgG control (Millipore Sigma 12-371) (antibody)”?
**A.** co-IP/MS count, N-term IgG (CLTC (human)): 6; co-IP/MS count, N-term IgG (CPSF7 (human)): 8; co-IP/MS count, N-term IgG (DDX3X (human)): 19; co-IP/MS count, N-term IgG (HBB (human)): 0; co-IP/MS count, N-term IgG (JUP (human)): 39; co-IP/MS count, N-term IgG (LAMC1 (human)): 0; co-IP/MS count, N-term IgG (MMP14 (human)): 0; co-IP/MS count, N-term IgG [1]: 3; co-IP/MS count, N-term IgG (PLOD1 (human)): 0; co-IP/MS count, N-term IgG (PSMA3 (human)): 0; co-IP/MS count, N-term IgG (PSMB5 (human)): 0; co-IP/MS count, N-term IgG (PUF60 (human)): 5; co-IP/MS count, N-term IgG (RPL6 (human)): 5; co-IP/MS count, N-term IgG (SBSN (human)): 25; co-IP/MS count, N-term IgG (SRSF6 (human)): 3; co-IP/MS count, N-term IgG (TGM1 (human)): 9; co-IP/MS count, N-term IgG (TTC13 (human)): 0; co-IP/MS count, N-term IgG (UniProt P01837.1): 87; co-IP/MS count, N-term IgG (XPOT (human)): 0
